# From the supplement of paper PMC12042874
# ± gives the uncertainty stated by the source.
# Test: amyloid nucleation score (Sup35N fusion, yeast selection) (log enrichment); library NNK2; higher = more nucleation; inactive = no reads after selection
# Outline: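 For the nucleation score, DiMSum gave the log enrichment of output over input reads, centred on the mode score of non-aggregating sequences. Psi-negative yeast expressing Sup35N fused to peptides of 20 random codons were induced with 100 μM copper sulfate for 24 hours and grown 7 days at 30°C on medium lacking adenine and uracil. Input and output plasmid inserts were Illumina-sequenced, and sequences with under 100 input reads were excluded.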
row,Substance,amyloid nucleation score
1,FYHRGMMWMYKWGMARYRVC,0.044 ± 0.44
2,HCRKQIMMGDFKIQGNRGVG,0.448 ± 0.66
3,LTGTMVMIVNPLDCVLGVER,5.01 ± 0.085
4,WDALGNVRRAMWVPS,0.048 ± 0.41
5,NFVKRV,-0.509 ± 0.48
6,VFFRLMKPNFGLP,0.199 ± 1.1
7,TTMYARFIFIVRDSEGMYCS,7.089 ± 0.064
8,NHHTEDMVK,0.367 ± 0.32
9,IVLCWLEGG,0.516 ± 0.31
10,VVVIGNFVSPRDIRFISMYT,8.118 ± 0.047
11,MLVDVLGC,inactive
12,SFGENLVYCMRSIVTSPYRL,-0.364 ± 0.24
13,TCSGWTWRQGLLVLSCRMIL,0.287 ± 0.38
14,IPFLLTHDEHAAGCPAMKSY,0.223 ± 0.33
15,TSFNQELEFFLCGGDVDCNR,-1.17 ± 1.1
16,MMYISSGVFWTE,inactive
17,ETVGYN,0.284 ± 1.1
18,SMRYVVISKQRSILEISLRY,3.46 ± 0.047
19,NMFIRKEYWSTLALEIFWWS,-0.441 ± 0.4
20,HGETTTGILIELFVIWYVNS,inactive
21,VGSFGLMKTYGVYCDNLLGR,inactive
22,CSSWRAYWNSGLQFLVIFGV,-0.737 ± 0.32

row,Substance,amyloid nucleation score
1,VRDNHNRSGQVRGGADLN,0.822 ± 0.34
2,TIFSHVYLALLR,0.382 ± 0.8
3,PSLLFFSCV,-0.366 ± 0.56
4,NEHGGLVNYGVCISGATYLA,4.21 ± 0.097
5,NACILNSM,inactive
6,IAYNMRNGH,0.949 ± 0.74
7,NTQVTQVILYLRPWV,9.151 ± 0.038
8,YGIRYYICKFMLKSFICSWY,-1.33 ± 1.1
9,PAVSYFFITFYVIVRFRLAE,2.86 ± 0.18
10,AYHTMGGWLRVAG,0.005 ± 1
11,SMTCRDLFSWYGSWYQSILF,0.874 ± 0.47
12,VSTIIWCIR,5.143 ± 0.047
13,VATNCINMGS,-0.197 ± 0.79
14,TYSLICQSTTKRFWVWKATL,-0.619 ± 1
15,QNFNILIGRGDVY,1.6 ± 0.23
16,CNFYCPRDPQSSIVSYTMSY,-0.159 ± 1
17,VRSMTELGPRLVAGK,1.45 ± 0.33
18,THYNVGLINNIINNLILVYI,4.52 ± 0.12
19,SLPFTLLNKSAHWNSLWFPG,-1.24 ± 1.1
20,AILSNVEVLYTRFRIKSCKL,-0.435 ± 0.34
21,EWSVWRSAKWQFQARNGMQG,2.05 ± 0.48
22,YFGGFAKRQSTLPATRKYRL,1.34 ± 0.52

row,Substance,amyloid nucleation score
1,VVVDGSLRVNLVSQGDPNNV,1.07 ± 0.25
2,VRLEPSHRVCRRVRLTSILR,inactive
3,LRVCNFCTFHFVWWS,4.8 ± 0.06
4,SGQKFN,0.015 ± 0.76
5,AQNYYMY,6.88 ± 0.087
6,NTGFNCCNHFFRADGSLVEC,3.39 ± 0.15
7,LRLFYHVR,-0.641 ± 0.33
8,RLSFNWSLKSYMLPLESSVV,-0.079 ± 0.55
9,GYQRNYSFAVSMEARSVVPG,4.12 ± 0.058
10,MFSMGEAAAL,0.305 ± 0.3
11,DLWRLMEIFMRSMRWHGITT,-0.456 ± 0.32
12,CDVLRY,-0.825 ± 0.48
13,FFRLIGDGGYCCFPCKSDVR,2.54 ± 0.077
14,SCGRMMTVVMIWGNWRSWSS,-0.439 ± 0.76
15,VYLFGGIRFDR,4.04 ± 0.049
16,YPYSPLSKRRNLRWINFVRC,-1.46 ± 1.1
17,IASTVDFKSLIISGDPSRQF,-0.235 ± 0.46
18,QMLDTRSLGNDYNYNVYSLA,-1.41 ± 0.39
19,AYMVEWEENHSESSVA,-0.383 ± 1
20,IFEHS,0.346 ± 0.61
21,FMSGRESAVCLFKNFSVLRS,2.76 ± 0.084
22,FYVLFGSF,-2.07 ± 0.76

row,Substance,amyloid nucleation score
1,TSCSTTAALEVNIRMTDVGV,1.59 ± 0.14
2,GSRVWFEIINL,6.013 ± 0.026
3,YTAWMALKNGRLVSGFKAR,0.009 ± 0.34
4,YNRLMVGRPRLQHLSL,-1.51 ± 0.39
5,SLLLFIYQMDRLVVASMLTN,-0.651 ± 1.1
6,LYVYMCIPLDYLSSRVDSKR,5.67 ± 0.094
7,SWSWSMGGNFRMVWSL,5.33 ± 0.06
8,VWDHVAGARALTWLRMLLKQ,inactive
9,TSYACRVIAMRVVCPCRQLR,inactive
10,HSKTYLKGRLCNSLVWSYES,0.712 ± 0.47
11,RRLFSVKIAYLCDT,2.63 ± 0.2
12,MYRISPCVLRGY,0.366 ± 0.34
13,VSLMKYQVELGNWKEPTCLG,0.14 ± 0.56
14,NNWVAAHSLS,inactive
15,SWMRFVKKIRQDAVRAVLIG,1.36 ± 0.4
16,DHAGWCSDRWVTDFDFAMGN,0.829 ± 0.5
17,NEYYAFFRLSADSASS,0.571 ± 0.51
18,RYENPLYVCDWGFGASLFRP,0.237 ± 0.22
19,RVSLLMYGWRVGRTNVCGLC,1.41 ± 0.53
20,FILSQWYKGSECTTCRRLWG,-0.318 ± 0.4
